# Assay results published in IntAct's records for PubMed 22791719.
# B1: Phospholipid-transporting ATPase accessory subunit LEM3 (Saccharomyces cerevisiae), P42838 (parent)
# chain: MVNFDLGQVGEVFRRKDKGAIVSGDNPEEEEDVDASEFEEDEVKPVRTKNRRPKEDAFTQQRLAAINPVLTPRTVLPLYLLIAVVFVIVGGCILAQNSKVDEVTIYYQDCMTNATSSWSDIPSEHWQFVFHKYKTYNTAPQWRFVDDESDDFTKQRGTCQIRFTTPSDMKNNVYLNYVLEKFAANHRRYVLSFSEDQIRGEDASYETVHDATGINCKPLSKNADGKIYYPCGLIANSMFNDTFPLQLTNVGDTSNNYSLTNKGINWESDKKRYKKTKYNYTQIAPPPYWEKMYPDGYNETNIPDIQDWEEFQNWMRPGAFDKITKLIRINKNDTLPAGEYQLDIGLHWPVLEFNGKKGIYLTHGSHLGGRNPFLGIVYLIGGCICAAMALILLTFWLFGGRKIADASSLSWNMK
# B2: Phospholipid-transporting ATPase accessory subunit CDC50 (Saccharomyces cerevisiae), P25656 (parent)
# chain: MVSLFKRGKAPPLTKEGPTSKKPPNTAFRQQRLKAWQPILSPQSVLPLLIFVACIFTPIGIGLIVSATKVQDLTIDYSHCDTKASTTAFEDIPKKYIKYHFKSKVENKPQWRLTENENGEQSCELQFEIPNDIKKSIFIYYKITNFYQNHRRYVQSFDTKQILGEPIKKDDLDTSCSPIRSREDKIIYPCGLIANSMFNDTFSQVLSGIDDTEDYNLTNKHISWSIDRHRFKTTKYNASDIVPPPNWMKKYPDGYTDENLPDIHTWEEFQVWMRTAAFPKFYKLTLKNESASLPKGKYQMNIELNYPISLFGGTKSFVLTTNGAIGGRNMSLGVLYLIVAGLCALFGIIFLVKLIFQPRAMGDHTYLNFDDEENEDYEDVHAENTTLREIL
# partner: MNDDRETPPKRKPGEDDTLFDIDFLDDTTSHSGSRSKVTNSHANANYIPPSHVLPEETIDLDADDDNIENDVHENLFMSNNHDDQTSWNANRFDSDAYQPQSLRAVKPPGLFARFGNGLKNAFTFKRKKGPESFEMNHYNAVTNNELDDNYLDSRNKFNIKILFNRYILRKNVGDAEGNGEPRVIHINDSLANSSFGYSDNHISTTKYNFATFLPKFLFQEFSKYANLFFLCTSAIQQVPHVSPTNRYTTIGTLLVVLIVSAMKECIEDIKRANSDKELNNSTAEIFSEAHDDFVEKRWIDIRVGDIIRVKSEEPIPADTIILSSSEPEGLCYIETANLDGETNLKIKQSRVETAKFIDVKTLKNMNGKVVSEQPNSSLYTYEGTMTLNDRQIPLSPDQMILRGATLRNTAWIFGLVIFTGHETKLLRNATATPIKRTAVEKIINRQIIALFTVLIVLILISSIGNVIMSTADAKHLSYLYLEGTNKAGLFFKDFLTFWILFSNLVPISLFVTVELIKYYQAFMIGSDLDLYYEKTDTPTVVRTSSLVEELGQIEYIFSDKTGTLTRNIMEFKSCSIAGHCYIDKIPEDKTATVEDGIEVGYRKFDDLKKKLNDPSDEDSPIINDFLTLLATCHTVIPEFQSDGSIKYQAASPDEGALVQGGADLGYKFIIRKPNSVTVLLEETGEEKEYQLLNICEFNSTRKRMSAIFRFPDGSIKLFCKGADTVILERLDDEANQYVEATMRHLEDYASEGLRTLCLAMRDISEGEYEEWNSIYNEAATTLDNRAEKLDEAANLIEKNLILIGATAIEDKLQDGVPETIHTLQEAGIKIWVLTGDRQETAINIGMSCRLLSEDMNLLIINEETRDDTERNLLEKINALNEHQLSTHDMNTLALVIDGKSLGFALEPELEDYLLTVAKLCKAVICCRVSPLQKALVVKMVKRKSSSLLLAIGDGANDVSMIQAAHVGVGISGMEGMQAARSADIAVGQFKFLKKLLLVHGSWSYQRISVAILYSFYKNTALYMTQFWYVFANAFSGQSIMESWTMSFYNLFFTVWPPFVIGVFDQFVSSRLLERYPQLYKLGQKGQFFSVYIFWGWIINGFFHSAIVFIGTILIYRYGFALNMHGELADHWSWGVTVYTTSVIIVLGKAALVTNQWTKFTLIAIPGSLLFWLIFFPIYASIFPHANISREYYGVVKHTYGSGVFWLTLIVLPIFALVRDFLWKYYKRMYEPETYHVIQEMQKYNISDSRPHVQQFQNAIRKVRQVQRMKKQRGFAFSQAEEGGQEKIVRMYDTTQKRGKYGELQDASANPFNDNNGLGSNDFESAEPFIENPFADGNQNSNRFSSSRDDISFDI
# B3: Phospholipid-transporting ATPase accessory subunit CRF1 (Saccharomyces cerevisiae), P53740 (parent)
# chain: MGLILRWKEKKQLSSKQNAQKSRKPANTSFRQQRLKAWQPILSPQSVLPLLILMACVFAPIGIGLVVSTISVQRLVVNYTECDALAPAKHFETIPSEYVDYHFSKKVAVQPQWMVLTDPELGNQTCRIQFEVPNHIKKSTYVYYRLTNFNQNYREYVQSLDLDQLKGKALIGNDLDPNCDPLRTVENKTIFPCGLIANSMFNDTFGTTLTGVNDTADYLLTTKGIAWDTDSHRYGKTEYNASDIVPPPNWAKLFPNGYTDDNIPDLQNWEQFKIWMRTAALPNFYKLAMKNETNGLGKGIYIADIELNYPVRSFYGTKSFVLTTNSIIGAGNEALGIVYLIVAGIATLFAILFLIKVIFKPRPMHDHSYLNFENSDTPFDESSVVSIPLREIL
# Variants of: B1
# Details: with atc5_yeast DNF1, P32660
# atc5_yeast DNF1, P32660, sequence (P32660 whole entry): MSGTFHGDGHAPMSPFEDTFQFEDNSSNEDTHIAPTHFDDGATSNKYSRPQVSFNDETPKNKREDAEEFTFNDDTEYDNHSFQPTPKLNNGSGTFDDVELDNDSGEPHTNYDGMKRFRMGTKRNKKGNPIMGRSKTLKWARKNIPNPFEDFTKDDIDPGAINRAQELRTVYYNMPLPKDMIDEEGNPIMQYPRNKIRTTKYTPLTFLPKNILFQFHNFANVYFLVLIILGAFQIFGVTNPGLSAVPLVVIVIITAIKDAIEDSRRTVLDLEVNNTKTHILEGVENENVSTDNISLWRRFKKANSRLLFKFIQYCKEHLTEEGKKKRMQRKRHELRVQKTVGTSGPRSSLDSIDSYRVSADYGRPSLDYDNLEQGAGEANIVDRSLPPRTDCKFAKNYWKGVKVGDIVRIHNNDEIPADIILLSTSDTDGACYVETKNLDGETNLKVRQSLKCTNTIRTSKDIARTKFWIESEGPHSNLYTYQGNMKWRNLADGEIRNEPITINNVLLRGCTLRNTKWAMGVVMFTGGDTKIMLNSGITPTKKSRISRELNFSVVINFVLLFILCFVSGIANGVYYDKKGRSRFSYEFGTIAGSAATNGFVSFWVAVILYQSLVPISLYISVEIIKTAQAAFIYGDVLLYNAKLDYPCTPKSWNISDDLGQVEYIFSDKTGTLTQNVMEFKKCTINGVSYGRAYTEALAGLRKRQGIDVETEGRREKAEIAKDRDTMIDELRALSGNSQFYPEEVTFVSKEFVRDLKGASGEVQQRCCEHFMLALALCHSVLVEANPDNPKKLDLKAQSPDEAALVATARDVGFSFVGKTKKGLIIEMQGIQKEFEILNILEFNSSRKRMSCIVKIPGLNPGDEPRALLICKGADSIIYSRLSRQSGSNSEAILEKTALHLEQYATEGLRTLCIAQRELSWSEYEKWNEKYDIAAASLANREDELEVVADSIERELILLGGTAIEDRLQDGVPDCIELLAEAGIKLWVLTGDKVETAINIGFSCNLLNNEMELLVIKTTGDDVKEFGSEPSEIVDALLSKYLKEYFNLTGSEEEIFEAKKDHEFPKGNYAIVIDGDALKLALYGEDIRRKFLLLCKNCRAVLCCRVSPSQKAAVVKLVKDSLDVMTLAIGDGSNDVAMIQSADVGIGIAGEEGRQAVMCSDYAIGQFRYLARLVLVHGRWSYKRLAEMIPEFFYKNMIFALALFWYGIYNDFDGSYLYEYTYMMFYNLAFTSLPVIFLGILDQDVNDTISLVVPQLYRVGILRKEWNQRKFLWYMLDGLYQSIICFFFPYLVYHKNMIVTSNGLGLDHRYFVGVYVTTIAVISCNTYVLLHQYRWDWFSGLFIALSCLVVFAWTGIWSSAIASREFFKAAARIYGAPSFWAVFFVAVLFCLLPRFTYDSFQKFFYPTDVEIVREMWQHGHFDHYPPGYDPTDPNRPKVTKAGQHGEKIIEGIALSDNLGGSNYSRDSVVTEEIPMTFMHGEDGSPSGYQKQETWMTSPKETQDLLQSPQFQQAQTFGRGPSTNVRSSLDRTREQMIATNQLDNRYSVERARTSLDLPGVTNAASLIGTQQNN
row,Variant,effect of a mutation on the interaction
1,MVNFDLGQVGEVFRRKDKGAIVSGDNPEEEEDVDASEFEEDEVKPVRTKNRRPKEDAFTQQRLAAINPVLTPRTVLPLYLLIAVVFVIVGGCILAQNSKVDEVTIYYQDCMTNATSSWSDIPSEHWQFVFHKYKTYNTAPQWRFVDDESDDFTKQRGTCQIRFTTPSDMKNNVYLNYVLEKFAANHRRYVLSFSEDQIRGEDASYETVHDATGINCKPLSKNADGKIYYPAGLIANSMFNDTFPLQLTNVGDTSNNYSLTNKGINWESDKKRYKKTKYNYTQIAPPPYWEKMYPDGYNETNIPDIQDWEEFQNWMRPGAFDKITKLIRINKNDTLPAGEYQLDIGLHWPVLEFNGKKGIYLTHGSHLGGRNPFLGIVYLIGGCICAAMALILLTFWLFGGRKIADASSLSWNMK [C231A],decreasing interaction strength
2,MVNFDLGQVGEVFRRKDKGAIVSGDNPEEEEDVDASEFEEDEVKPVRTKNRRPKEDAFTQQRLAAINPVLTPRTVLPLYLLIAVVFVIVGGCILAQNSKVDEVTIYYQDCMTNATSSWSDIPSEHWQFVFHKYKTYNTAPQWRFVDDESDDFTKQRGTAQIRFTTPSDMKNNVYLNYVLEKFAANHRRYVLSFSEDQIRGEDASYETVHDATGINCKPLSKNADGKIYYPCGLIANSMFNDTFPLQLTNVGDTSNNYSLTNKGINWESDKKRYKKTKYNYTQIAPPPYWEKMYPDGYNETNIPDIQDWEEFQNWMRPGAFDKITKLIRINKNDTLPAGEYQLDIGLHWPVLEFNGKKGIYLTHGSHLGGRNPFLGIVYLIGGCICAAMALILLTFWLFGGRKIADASSLSWNMK [C159A],disrupting interaction strength
3,MVNFDLGQVGEVFRRKDKGAIVSGDNPEEEEDVDASEFEEDEVKPVRTKNRRPKEDAFTQQRLAAINPVLTPRTVLPLYLLIAVVFVIVGGCILAQNSKVDEVTIYYQDCMTNATSSWSDIPSEHWQFVFHKYKTYNTAPQWRFVDDESDDFTKQRGTCQIRFTTPSDMKNNVYLNYVLEKFAANHRRYVLSFSEDQIRGEDASYETVHDATGINCKPLSKNADGKIYYPCGLIANSMFNDTFPLQLTNVGDTSNNYSLTNKGINWESDKKRYKKTKYNYTQIAPPPYWEKMYPDGYNETNIPDIQDWEEFQNWMRPGAFDKITKLIRINKNDTLPAGEYQLDIGLHWPVLEFNGKKGIYLTHGSHLGGRNPFLGIVYLIGGCICAAMALILLTFWLFGGRKIVDASSLSWNMK [A404V],disrupting interaction strength
4,MVNFDLGQVGEVFRRKDKGAIVSGDNPEEEEDVDASEFEEDEVKPVRTKNRRPKEDAFTQQRLAAINPVLTPRTVLPLYLLIAVVFVIVGGCILAQNSKVDEVTIYYQDCMTNATSSWSDIPSEHWQFVFHKYKTYNTAPQWRFVDDESDDFTKQRGTCQIRFTTPSDMKNNVYLNYVLEKFAANHRRYVLSFSEDQIRGEDASYETVHDATGINCKPLSKNADGKIYYPCGLIANLMFNDTFPLQLTNVGDTSNNYSLTNKGINWESDKKRYKKTKYNYTQIAPPPYWEKMYPDGYNETNIPDIQDWEEFQNWMRPGAFDKITKLIRINKNDTLPAGEYQLDIGLHWPVLEFNGKKGIYLTHGSHLGGRNPFLGIVYLIGGCICAAMALILLTFWLFGGRKIADASSLSWNMK [S237L],disrupting interaction strength

# Variants of: B2
# Details: with atc3_yeast DRS2, P39524
row,Variant,effect of a mutation on the interaction
1,MVSLFKRGKAPPLTKEGPTSKKPPNTAFRQQRLKAWQPILSPQSVLPLLIFVACIFTPIGIGLIVSATKVQDLTIDYSHCDTKASTTAFEDIPKKYIKYHFKSKVENKPQWRLTENENGEQSAELQFEIPNDIKKSIFIYYKITNFYQNHRRYVQSFDTKQILGEPIKKDDLDTSCSPIRSREDKIIYPCGLIANSMFNDTFSQVLSGIDDTEDYNLTNKHISWSIDRHRFKTTKYNASDIVPPPNWMKKYPDGYTDENLPDIHTWEEFQVWMRTAAFPKFYKLTLKNESASLPKGKYQMNIELNYPISLFGGTKSFVLTTNGAIGGRNMSLGVLYLIVAGLCALFGIIFLVKLIFQPRAMGDHTYLNFDDEENEDYEDVHAENTTLREIL [C123A],disrupting interaction strength
2,MVSLFKRGKAPPLTKEGPTSKKPPNTAFRQQRLKAWQPILSPQSVLPLLIFVACIFTPIGIGLIVSATKVQDLTIDYSHCDTKASTTAFEDIPKKYIKYHFKSKVENKPQWRLTENENGEQSCELQFEIPNDIKKSIFIYYKITNFYQNHRRYVQSFDTKQILGEPIKKDDLDTSASPIRSREDKIIYPCGLIANSMFNDTFSQVLSGIDDTEDYNLTNKHISWSIDRHRFKTTKYNASDIVPPPNWMKKYPDGYTDENLPDIHTWEEFQVWMRTAAFPKFYKLTLKNESASLPKGKYQMNIELNYPISLFGGTKSFVLTTNGAIGGRNMSLGVLYLIVAGLCALFGIIFLVKLIFQPRAMGDHTYLNFDDEENEDYEDVHAENTTLREIL [C176A],decreasing interaction strength
3,MVSLFKRGKAPPLTKEGPTSKKPPNTAFRQQRLKAWQPILSPQSVLPLLIFVACIFTPIGIGLIVSATKVQDLTIDYSHCDTKASTTAFEDIPKKYIKYHFKSKVENKPQWRLTENENGEQSCELQFEIPNDIKKSIFIYYKITNFYQNHRRYVQSFDTKQILGEPIKKDDLDTSCSPIRSREDKIIYPAGLIANSMFNDTFSQVLSGIDDTEDYNLTNKHISWSIDRHRFKTTKYNASDIVPPPNWMKKYPDGYTDENLPDIHTWEEFQVWMRTAAFPKFYKLTLKNESASLPKGKYQMNIELNYPISLFGGTKSFVLTTNGAIGGRNMSLGVLYLIVAGLCALFGIIFLVKLIFQPRAMGDHTYLNFDDEENEDYEDVHAENTTLREIL [C190A],decreasing interaction strength
4,MVSLFKRGKAPPLTKEGPTSKKPPNTAFRQQRLKAWQPILSPQSVLPLLIFVACIFTPIGIGLIVSATKVQDLTIDYSHADTKASTTAFEDIPKKYIKYHFKSKVENKPQWRLTENENGEQSCELQFEIPNDIKKSIFIYYKITNFYQNHRRYVQSFDTKQILGEPIKKDDLDTSCSPIRSREDKIIYPCGLIANSMFNDTFSQVLSGIDDTEDYNLTNKHISWSIDRHRFKTTKYNASDIVPPPNWMKKYPDGYTDENLPDIHTWEEFQVWMRTAAFPKFYKLTLKNESASLPKGKYQMNIELNYPISLFGGTKSFVLTTNGAIGGRNMSLGVLYLIVAGLCALFGIIFLVKLIFQPRAMGDHTYLNFDDEENEDYEDVHAENTTLREIL [C80A],disrupting interaction strength

# Variants of: B3
# Details: with atc8_yeast DNF3, Q12674
# atc8_yeast DNF3, Q12674, sequence (Q12674 whole entry): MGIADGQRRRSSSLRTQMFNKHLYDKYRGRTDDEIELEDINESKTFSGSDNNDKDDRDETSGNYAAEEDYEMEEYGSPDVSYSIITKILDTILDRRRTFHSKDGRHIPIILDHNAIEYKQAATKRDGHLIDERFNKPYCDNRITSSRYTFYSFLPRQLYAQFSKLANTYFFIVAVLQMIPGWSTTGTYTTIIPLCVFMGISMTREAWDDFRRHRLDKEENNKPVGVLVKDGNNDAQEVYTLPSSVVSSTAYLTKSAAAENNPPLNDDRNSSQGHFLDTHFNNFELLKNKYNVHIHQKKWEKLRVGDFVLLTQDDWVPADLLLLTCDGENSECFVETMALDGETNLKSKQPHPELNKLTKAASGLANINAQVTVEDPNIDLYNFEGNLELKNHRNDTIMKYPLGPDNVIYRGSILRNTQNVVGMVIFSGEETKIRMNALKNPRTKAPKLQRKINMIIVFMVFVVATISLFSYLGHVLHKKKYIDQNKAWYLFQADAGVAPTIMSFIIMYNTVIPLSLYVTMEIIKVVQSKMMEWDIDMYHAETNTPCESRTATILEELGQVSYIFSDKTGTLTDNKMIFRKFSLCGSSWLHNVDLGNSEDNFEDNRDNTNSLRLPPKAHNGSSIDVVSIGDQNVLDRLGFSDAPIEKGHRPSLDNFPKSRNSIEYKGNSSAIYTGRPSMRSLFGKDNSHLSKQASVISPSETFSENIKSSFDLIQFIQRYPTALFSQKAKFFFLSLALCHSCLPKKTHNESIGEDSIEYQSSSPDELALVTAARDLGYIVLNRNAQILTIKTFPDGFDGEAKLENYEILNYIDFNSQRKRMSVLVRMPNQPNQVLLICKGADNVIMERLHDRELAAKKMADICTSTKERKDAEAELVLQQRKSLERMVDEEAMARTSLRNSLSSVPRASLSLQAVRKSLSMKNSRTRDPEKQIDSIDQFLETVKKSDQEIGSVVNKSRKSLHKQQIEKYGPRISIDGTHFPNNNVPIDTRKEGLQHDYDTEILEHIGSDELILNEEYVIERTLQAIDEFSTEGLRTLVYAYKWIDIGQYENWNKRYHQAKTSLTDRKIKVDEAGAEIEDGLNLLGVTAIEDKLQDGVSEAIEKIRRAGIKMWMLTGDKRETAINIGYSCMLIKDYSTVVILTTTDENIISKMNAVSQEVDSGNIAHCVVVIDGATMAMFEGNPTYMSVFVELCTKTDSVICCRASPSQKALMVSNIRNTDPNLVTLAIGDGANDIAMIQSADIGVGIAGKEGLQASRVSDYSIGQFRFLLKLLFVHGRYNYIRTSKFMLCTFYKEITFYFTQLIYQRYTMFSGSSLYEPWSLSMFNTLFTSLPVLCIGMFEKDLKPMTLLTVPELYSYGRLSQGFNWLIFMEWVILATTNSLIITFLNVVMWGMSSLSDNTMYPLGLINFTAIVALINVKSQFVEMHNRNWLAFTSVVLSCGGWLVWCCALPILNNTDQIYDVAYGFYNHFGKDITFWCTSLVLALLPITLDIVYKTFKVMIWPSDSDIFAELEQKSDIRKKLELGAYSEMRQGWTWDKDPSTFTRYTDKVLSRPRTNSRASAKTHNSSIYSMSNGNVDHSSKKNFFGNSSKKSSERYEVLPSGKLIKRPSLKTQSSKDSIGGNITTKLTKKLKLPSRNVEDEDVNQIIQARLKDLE
row,Variant,effect of a mutation on the interaction
1,MGLILRWKEKKQLSSKQNAQKSRKPANTSFRQQRLKAWQPILSPQSVLPLLILMACVFAPIGIGLVVSTISVQRLVVNYTECDALAPAKHFETIPSEYVDYHFSKKVAVQPQWMVLTDPELGNQTARIQFEVPNHIKKSTYVYYRLTNFNQNYREYVQSLDLDQLKGKALIGNDLDPNCDPLRTVENKTIFPCGLIANSMFNDTFGTTLTGVNDTADYLLTTKGIAWDTDSHRYGKTEYNASDIVPPPNWAKLFPNGYTDDNIPDLQNWEQFKIWMRTAALPNFYKLAMKNETNGLGKGIYIADIELNYPVRSFYGTKSFVLTTNSIIGAGNEALGIVYLIVAGIATLFAILFLIKVIFKPRPMHDHSYLNFENSDTPFDESSVVSIPLREIL [C126A],disrupting interaction strength
